# Measured values: US20190225675A1 (TUFTS UNIVERSITY, published 2019)
# Residue numbers refer to the chain shown, from its start. Where two headings read alike, the source gives them in different places.
# T1: Shiga-like toxin 2 (Stx2) (UniProt P09385 23-319; P09386 20-89)
# T1 sequence 1: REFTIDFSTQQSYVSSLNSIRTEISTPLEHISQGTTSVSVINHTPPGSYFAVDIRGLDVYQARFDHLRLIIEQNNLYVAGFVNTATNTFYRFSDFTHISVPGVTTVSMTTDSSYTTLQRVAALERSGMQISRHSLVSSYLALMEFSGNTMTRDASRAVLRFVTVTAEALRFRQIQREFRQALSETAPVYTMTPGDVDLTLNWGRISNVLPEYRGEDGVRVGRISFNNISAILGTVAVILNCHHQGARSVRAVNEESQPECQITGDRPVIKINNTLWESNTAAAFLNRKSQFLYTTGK
# T1 sequence 2: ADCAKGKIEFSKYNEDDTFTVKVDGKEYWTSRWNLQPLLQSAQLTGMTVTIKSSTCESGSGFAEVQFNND
# B1: JDQ-F9 (VHH)
# VHH: QVQLVESGGGLVQDGGSLRLSCTTSGSIDSFNAIEWYRQAPGKQRELVASISSDGRRTNYADSVKGRFTISGDNAKNTVYLQMNSLKPEDTAVYYCHRPFTHYWGQGTQVTVSS
# B2: JIJ-E9 (VHH)
# VHH: QVQLVETGGLVQPGGSLRLSCAASRSTTATIYSMNWYRQAPGKQRELVAGMTSDGQTNYATSVKGRFTISRDNAKNTVYLLMNSLKLEDTAVYYCYVKPWRLQGWDYWGQGTQVTVSS
# B3: Stx-A4 (VHH)
# VHH: SGGGLVQPGGSLRLSCAASGFTLGSYHIGWFRHPPGKEREGTSCLSSRGDYTKYAEAVKGRFTISRDNTKSTVYLQMNNLKPEDTGIYVCAAIRPVLSDSHCTLAARYNYWGQGTQVTVSS
# B4: scFv#7 (scFv)
# scFv: SYELTQPPSMSVALGQTAKVTCQGDNLENFYVQWHQQKPGQAPVTVIFQDNKRPSGIPDRFSGSNSGNTATLTISGARTEDEADYYCQSGHSSIGGVFGSGTSLTVLGQPAAAGGGGSGGGGSGGGGSARQVQLQESGPSLVKPSQTLSLTCTVSGFSLTGNSVTWVRQAPGNVPEWLGGISRGGRTYYDTALKSRLSITRDTSKRQVSLSLSSVTTEDTAMYFCARSAYSTLYDYEYAADIYDWGPGLLVTVSSTSGAPVPYPDPLEPRAA
# B5: Stx2-G1 (VHH)
# VHH: SGGGLVQPGESLRLSCVASASTFSTSLMGWVRQAPGKGLESVAEVRTTGGTFYAKSVAGRFTISRDNAKNTLYLQMNSLKAEDTGVYYCTAGAGPIATRYRGQGTQVTVSS
# B6: JIK-F4 (VHH)
# VHH: TGGGLVQAGGSLRLSCAASGRYAMGWFRQAPGKEREFVATISRSGAIREYADSVKGRFTISRDGAENTVYLEMNSLKPDDTAIYVCAEGRGATFNPEYAYWGQGTQVTVSS
# B7: JIK-B10 (VHH)
# VHH: QVQLVETGGGLVQPGGSLRLSCAASGFTFSSYRMSWYRQAAGKERDVVATITANGVPTGYADSVMGRFTISRDNAKNTVYLEMNSLNPEDTAVYYCNAPRLHTSVGYWGQGTQVTVSS
# B8: JDO-E9 (VHH)
# VHH: QVQLVESGGGLVRPGGSLRLSCVVSGFAYEMPMMGWYRQAPGNQRELVATIGTGGRMNYADSVKGRFTISRDNAKNTVYLQMNSLKPEDTAAYYCKIEFTNYWGQGTQVTVSS
# B9: JDQ-B2 (VHH)
# VHH: QVQLVESGGGLVQPGGSLRLSCTVSGSIFDLPGMNWYRQAPGAQRELVADISSDGRRTNYADSVKGRFTMSRDNAKKTVYLQMDSLKPDDTAVYYCNVKFTHHWGQGIQVTVSS
# B10: JDQ-C5 (VHH)
# VHH: B9 VHH with D30G, N35S, R56G, N59H, M70I, A75D
# B11: JIJ-B8 (VHH)
# VHH: QVQLVESGGGLVQPGGSLSVSCAASGSIARPGAMAWYRQAPGKERELVASITPGGLTNYADSVTGRFTISRDNAKRTVYLQMNSLQPEDTAVYYCHARIIPLGLGSEYRDHWGQGTQVTVSS
# B12: JIJ-A12 (VHH)
# VHH: QVQLVESGGGLVQPGGSLRLSCAASGIIFSIYTMGWYRQAPGKQRELVAAIPSGPSANATDSVGGRFTITRDNAENTVYLQMNDLKPEDTAVYYCNARRGPGIKNYWGQGTQVTVSS
# B13: Stx-A5 (VHH)
# VHH: SGGGLVQPGGSLRLSCAALEFTLEDYAIAWFRQAPGKEREGVSCISKSGVTKYTDSVKGRFTVARDNAKSTVILQMNNLRPEDTAVYNCAAVRPVFVDSVCTLATRYTYWGEGTQVTVSS
# B14: JIJ-F11 (VHH)
# VHH: QVQLVESGGGLVQPGGSLRLSCAAPESIVNSRTMAWYRQAPGKQRERVATITTAGSPNYADSVKGRFAISRDNAKNTVYLQMNSLKPEDTAVYYCNTLLSTLPYGQGTQVTVSS
# B15: JIJ-C11 (VHH)
# VHH: QVQLVETGGGLVQPGGSLGLSCVVASGRSINNYGMGWYRQAPGKQRELVAQISSGGTTNYAGSVEGRFTISRDNVKKMVYLQMNSLKPEDTAVYYCNSLLRTFSWGQGTQVTVSS
# B16: JIK-B8 (VHH)
# VHH: B15 VHH with T7S, G27E, G62D, Y80H, M83V
# B17: JIJ-D3 (VHH)
# VHH: QVQLVETGGLVQPGGSLRLSCAASGLTFSSTAMAWFRQAPGKEREFVARISGAGITIYYSDSVKDRFTISRNNVENTVYLQMNSLKTEDTAVYYCAARRNTYTSDYNIPARYPYWGQGTQVTVSS
# B18: JHE-D9 (VHH)
# VHH: QVQLVESGGGLVQPGGSLRLSCAASGFIFSLYTMRWHRQAPGKERELVATITSATGITNYADSVKGRFIISRDDAKKTGYLQMNSLKPEDTAVYYCNAVRTTVSRDYWGQGTQVTVSS
# B19: VNA-TcdA (toxin A binding heterodimer, AH3+AA6) (bispecific antibody)
# chain: QGVQSQLQLVESGGGLVQPGGSLRLSCAASGFTLDYSSIGWFRQAPGKEREGVSCISSSGDSTKYADSVKGRFTTSRDNAKNTVYLQMNSLKPDDTAVYYCAAFRATMCGVFPLSPYGKDDWGKGTLVTVSSEPKTPKPQGGGGSGGGGSGGGGSQGVQSQVQLVESGGGLVQPGGSLRLSCAASGFTFSDYVMTWVRQAPGKGPEWIATINTDGSTMRDDSTKGRFTISRDNAKNTLYLQMTSLKPEDTALYYCARGRVISASAIRGAVRGPGTQVTVSSEPKTPKPQ
# B20: JHD-B6 (VHH)
# VHH: QVQLVESGGGLVQPGGSLRLSCAASGSSFSRYAMRWYRQAPGKQRELVANINSRGTSNYADSVKGRFTISRDNAKNTVYLQMNSLKPEDTAVYYCNAEWLGRSEPSWGQGTQVTVSS
# B21: JIK-B12 (VHH)
# VHH: QVQLVESGGGLVQAGNSLRLSCTASGVIFSIYTMGWFRQAPGKEREFVAAIGVADGTALVADSVTGRFTISRDNAKNTVYLHMNSLKPEDTAVYSCAAYLSPRVQSPYITDSRYQLWGQGTQVTVSS
# B22: Stx2-D10 (VHH)
# VHH: TGGLVQAGGSLRLSCAASGVPFSDYTMAWFRQAPGKEREVVARITWRGGGPYYGNSGNGRFAISRDIAKSMVYLHMDSLKPEDTAVYYCAASRLRPALASMASDYDYWGQGTQVSVSS
# Columns and labels:
# [1] = target: T2, Botulinum neurotoxin serotype A1 (BoNT/A) holotoxin (Clostridium botulinum, UniProt P0DPI0 2-1296); test: VHH selection; binding competition
# T2 construct: mature
# [2] = target: anthrax protective antigen (PA) (Bacillus anthracis, UniProt P13423 30-764); test: legend of FIG. 29A: VHHs identified that bind each target as indicated
# anthrax protective antigen (PA), sequence (P13423 30-764 limits assumed): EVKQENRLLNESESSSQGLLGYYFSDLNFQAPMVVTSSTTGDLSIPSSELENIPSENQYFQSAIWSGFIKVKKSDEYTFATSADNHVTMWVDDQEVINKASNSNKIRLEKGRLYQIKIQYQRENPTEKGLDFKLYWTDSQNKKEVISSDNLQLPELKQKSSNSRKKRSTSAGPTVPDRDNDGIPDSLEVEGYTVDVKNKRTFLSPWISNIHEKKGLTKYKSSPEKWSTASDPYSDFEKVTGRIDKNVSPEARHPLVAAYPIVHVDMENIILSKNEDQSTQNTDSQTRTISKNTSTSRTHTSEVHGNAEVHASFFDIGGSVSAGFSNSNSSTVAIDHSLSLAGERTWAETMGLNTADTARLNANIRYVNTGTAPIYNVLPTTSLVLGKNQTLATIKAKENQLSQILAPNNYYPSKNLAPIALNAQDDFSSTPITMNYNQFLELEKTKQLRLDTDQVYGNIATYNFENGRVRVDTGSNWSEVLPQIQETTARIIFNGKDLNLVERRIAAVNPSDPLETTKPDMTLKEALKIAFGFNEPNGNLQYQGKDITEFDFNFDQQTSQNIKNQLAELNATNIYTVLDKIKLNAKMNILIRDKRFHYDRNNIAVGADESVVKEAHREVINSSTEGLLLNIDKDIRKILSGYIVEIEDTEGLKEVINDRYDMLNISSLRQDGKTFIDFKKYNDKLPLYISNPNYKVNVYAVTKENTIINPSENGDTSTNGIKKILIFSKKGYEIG
# [3] = target: T1, Shiga-like toxin 2 (Stx2)
# [4] = target: T2, Botulinum neurotoxin serotype A1 …; test: method not stated
# [5] = target: T1, Shiga-like toxin 2 (Stx2); remark: listed apart in the source
# [6] = target: T1, Shiga-like toxin 2 (Stx2); remark: listed apart in the source
# [7] = target: T1, Shiga-like toxin 2 (Stx2); remark: listed apart in the source
# [8] = target: T3, Clostridium difficile toxin B (TcdB) (Clostridium difficile, UniProt P18177 2-2366); test: ELISA, toxin-coated plates, HRP-conjugated detection antibody
# T3 construct: mature
# [9] = target: T4, Clostridium difficile toxin A (TcdA) (Clostridium difficile, UniProt P16154 1-2710); test: ELISA on plates coated with TcdA, HRP-conjugated detection antibody, A450
# T4 construct: mature
# T4 sequence (P16154 whole entry): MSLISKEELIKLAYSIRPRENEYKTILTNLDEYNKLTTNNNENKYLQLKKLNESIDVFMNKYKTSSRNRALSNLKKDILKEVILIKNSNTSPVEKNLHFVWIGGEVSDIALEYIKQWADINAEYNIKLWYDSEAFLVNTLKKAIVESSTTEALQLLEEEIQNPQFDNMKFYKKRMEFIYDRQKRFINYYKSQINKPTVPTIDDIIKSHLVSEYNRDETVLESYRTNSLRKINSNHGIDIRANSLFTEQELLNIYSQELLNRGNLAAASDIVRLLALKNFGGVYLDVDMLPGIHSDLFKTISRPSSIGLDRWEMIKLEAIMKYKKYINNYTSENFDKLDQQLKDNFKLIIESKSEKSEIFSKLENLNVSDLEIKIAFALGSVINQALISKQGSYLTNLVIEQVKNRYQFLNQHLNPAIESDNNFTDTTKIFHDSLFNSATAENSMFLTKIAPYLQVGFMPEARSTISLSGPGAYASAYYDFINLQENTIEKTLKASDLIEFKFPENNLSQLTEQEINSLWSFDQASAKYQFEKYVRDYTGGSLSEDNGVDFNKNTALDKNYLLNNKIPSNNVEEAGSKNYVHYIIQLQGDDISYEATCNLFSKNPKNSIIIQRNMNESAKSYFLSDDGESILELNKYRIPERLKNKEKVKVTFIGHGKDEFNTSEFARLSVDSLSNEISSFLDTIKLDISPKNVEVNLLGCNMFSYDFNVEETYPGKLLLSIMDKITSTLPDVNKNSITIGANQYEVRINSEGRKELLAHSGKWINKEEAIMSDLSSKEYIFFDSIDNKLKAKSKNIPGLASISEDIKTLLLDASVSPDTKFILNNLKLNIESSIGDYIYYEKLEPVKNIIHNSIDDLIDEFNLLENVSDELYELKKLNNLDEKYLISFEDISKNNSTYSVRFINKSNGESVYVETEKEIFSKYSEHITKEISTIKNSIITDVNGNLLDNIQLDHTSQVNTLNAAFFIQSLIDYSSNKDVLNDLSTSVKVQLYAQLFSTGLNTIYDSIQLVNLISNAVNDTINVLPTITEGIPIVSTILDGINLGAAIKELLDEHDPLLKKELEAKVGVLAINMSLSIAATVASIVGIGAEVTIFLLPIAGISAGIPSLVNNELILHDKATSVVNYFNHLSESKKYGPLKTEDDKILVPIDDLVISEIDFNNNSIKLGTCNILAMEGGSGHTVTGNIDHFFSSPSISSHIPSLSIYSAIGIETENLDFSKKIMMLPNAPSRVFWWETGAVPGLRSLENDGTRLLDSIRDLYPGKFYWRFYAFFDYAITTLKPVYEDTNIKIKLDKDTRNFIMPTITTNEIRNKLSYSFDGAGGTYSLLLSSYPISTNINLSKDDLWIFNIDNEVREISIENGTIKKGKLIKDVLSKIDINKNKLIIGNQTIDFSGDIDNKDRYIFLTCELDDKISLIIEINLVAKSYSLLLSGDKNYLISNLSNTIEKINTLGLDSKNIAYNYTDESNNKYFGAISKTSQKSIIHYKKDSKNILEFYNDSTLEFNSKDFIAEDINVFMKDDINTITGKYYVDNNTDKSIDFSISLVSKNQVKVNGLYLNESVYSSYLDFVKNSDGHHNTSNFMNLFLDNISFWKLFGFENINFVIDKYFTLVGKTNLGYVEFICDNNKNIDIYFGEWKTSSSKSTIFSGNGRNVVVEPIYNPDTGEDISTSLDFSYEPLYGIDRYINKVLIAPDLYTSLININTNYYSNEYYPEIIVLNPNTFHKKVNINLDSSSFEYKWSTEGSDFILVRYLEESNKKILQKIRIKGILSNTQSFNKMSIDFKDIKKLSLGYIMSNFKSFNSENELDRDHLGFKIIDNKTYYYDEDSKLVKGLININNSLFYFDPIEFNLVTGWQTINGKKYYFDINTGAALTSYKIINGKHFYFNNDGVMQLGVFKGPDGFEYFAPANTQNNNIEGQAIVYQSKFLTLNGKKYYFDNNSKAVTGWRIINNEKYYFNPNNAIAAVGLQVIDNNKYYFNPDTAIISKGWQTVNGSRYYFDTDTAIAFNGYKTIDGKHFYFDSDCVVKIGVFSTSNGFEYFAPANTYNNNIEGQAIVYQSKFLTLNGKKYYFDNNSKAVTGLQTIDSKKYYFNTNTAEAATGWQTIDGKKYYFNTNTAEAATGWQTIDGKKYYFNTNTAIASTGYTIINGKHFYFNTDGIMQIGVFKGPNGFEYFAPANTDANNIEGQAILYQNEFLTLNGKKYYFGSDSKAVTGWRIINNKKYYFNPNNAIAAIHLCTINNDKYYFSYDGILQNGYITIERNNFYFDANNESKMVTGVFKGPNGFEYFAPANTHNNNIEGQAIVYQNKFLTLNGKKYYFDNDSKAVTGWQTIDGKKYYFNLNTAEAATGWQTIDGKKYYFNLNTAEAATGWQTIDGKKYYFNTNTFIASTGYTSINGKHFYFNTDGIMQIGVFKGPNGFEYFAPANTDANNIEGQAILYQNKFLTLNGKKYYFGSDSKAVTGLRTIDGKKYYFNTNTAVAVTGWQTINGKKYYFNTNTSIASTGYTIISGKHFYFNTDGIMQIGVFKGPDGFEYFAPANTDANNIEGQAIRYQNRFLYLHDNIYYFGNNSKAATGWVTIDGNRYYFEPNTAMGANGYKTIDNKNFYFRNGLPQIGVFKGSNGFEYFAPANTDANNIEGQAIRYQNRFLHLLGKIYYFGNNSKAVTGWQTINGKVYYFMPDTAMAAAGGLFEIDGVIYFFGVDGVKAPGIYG
binder,measurement,setting,value
B1,binding result,[1],binds
B2,binding result,[2],binds
B3,EC50 (read off the curve),[3],~8000 pM
B4,Kd,[4],~1000 pM
B5,EC50 (read off the curve),[5],~100 pM
same,EC50 (read off the curve),[6],~100 pM
B6,binding result,[2],binds
B7,binding result,[2],binds
B8,binding result,[1],binds
B9,binding result,[1],binds
B10,binding result,[1],binds
B11,binding result,[2],binds
B12,binding result,[2],binds
B13,EC50 (read off the curve),[7],~800 pM
same,EC50 (read off the curve),[6],~800 pM
same,EC50 (read off the curve),[3],~800 pM
B14,binding result,[2],binds
B15,binding result,[2],binds
B16,binding result,[2],binds
B17,binding result,[2],binds
B18,binding result,[2],binds
B19,binding result,[8],no binding (tested: up to 125 nM)
same,EC50 (read off the curve),[9],~2000 pM
B20,binding result,[2],binds
B21,binding result,[2],binds
B22,EC50 (read off the curve),[5],~300 pM
same,EC50 (read off the curve),[7],~300 pM
